Test [1] addresses T1, Dpy-30 (Homo sapiens, UniProt Q9C005). In words: Ni-NTA pulldown of GST-tagged RSP3 peptides with His-tagged human Dpy-30 protein. Format: binding. The conditions noted are these: full-length human His-Dpy-30 co-expressed with GST-RSP3 peptide. Also on record: made in house; host or cells: E. coli BL21(DE3), co-expressed with the GST-RSP3 peptides. The source says:
(§1) Based on the phenotypes of RSP3 transgenic strains (FIG. 4), an in vitro approach was taken to test that RSP3269-316 contains a Dpy-30 domain binding site. RIIa-binding AHs are 14-18-a.a. long. Some of AHs are clearly comprised of ΦΦXX repeats in which the first two residues are hydrophobic residues (Φ) positioned to interact with complementary residues at the binding grooves of the RIIa domain (Burns-Hamuro et al., 2003; Kinderman et al., 2006; Sarma et al., 2010), whereas for the other RIIa-binding AHs the repeats are not as evident (Gold et al., 2006; Gaillard et al., 2001). Typical ΦΦXX repeats were noted within the Dpy-30 binding fragment in BIG1 at the trans-Golgi network but were not tested yet (Xia et al., 2010). For RSP3269-316, typical and degenerate ΦΦXX repeats are present throughout this region, thus the precise Dpy-30 binding site was determined objectively by Ni-NTA pulldown. As a control, the His-tagged RIIa domain from RSP7 was co-expressed with the GST-tagged RSP396-180 that harbors AHR at a.a.#161-178 (Gaillard et al., 2001; FIG. 3) and both polypeptides were co-purified by Ni-NTA (FIG. 7A). Various Dpy-30 domain containing RSP2 and RSP23 polypeptides were tested but were not compatible for this assay due to poor expression or precipitation propensity. Therefore we used the His-tagged human Dpy-30 protein for Ni-NTA pulldown instead. As expected, both GST-RSP3245-316 and GST-RSP3269-316 were co-purified with His-Dpy-30 by Ni-NTA (FIGS. 7B and 7C). In contrast, the GST control was not co-purified (FIG. 7D).
The experiments were further conducted on smaller segments within a.a.#269-316. GST-RSP3280-316 and GST-RSP3280-308, but not GST-RSP3280-306, were also pulled down by His-Dpy-30 (FIG. 7E, left panel). […] To ensure that the co-purification occurs through the Dpy-30 domain rather than its flanking sequence, the same experiment was conducted with the Dpy-30 domain only (Dpy-3045-99, Wang et al., 2009). The results from the experiments using Dpy-30 domain alone or full-length Dpy-30 protein were similar (FIG. 7E, right panel). Based on the similar dimensions of the RIIa and Dpy-30 domains (FIG. 1), we tested if the Dpy-30 binding peptide is centered on the 18-a.a. helix at the a.a.#291-308 by mutating V300 in the middle of the region into P, a strategy used to study AHR (Gaillard et al., 2001; Carr et al., 1992). […] RSP3291-308.
For Ni-NTA (Qiagen) affinity co-purification, GST-tagged RSP3 constructs and His-tagged HDpy-30 constructs were co-transformed into BL21(DE3) cells. The recombinant proteins were induced using 1 mM IPTG overnight at 16° C. Following induction, the cell pellet from a 5-ml culture was resuspended in 750 μl lysis buffer and sonicated using Branson digital Sonifier (Emerson Industrial Automation). The sonicated mixtures were centrifuged at 4° C., 12,000 rpm for 25 min. The supernatant was incubated with 100 μl Ni-NTA for 1 hour at room temperature. The matrix was subsequently washed thrice and elution was carried out as instructed by the manufacturer.

Test [2] concerns RIIa domain from RSP7. The test is described as follows: Ni-NTA pulldown with His-tagged RIIa domain from RSP7. The format is binding, Chlamydomonas. The conditions noted are these: co-expressed in bacteria.
Description: as §1
Based on the structural similarity, we tested for the cross-recognition of His-Dpy-30 and AHR (GST-RSP3g); and RSP7's RIIa and AHD (GST-RSP3280-308) by the described Ni-NTA pulldown assay. […] Thus Dpy-30 that has a deep pocket from an additional α-helix recognizes both AHR and AHD, whereas RSP7's RIIa, as PKA's RII, only binds RSP3's AHR(Gaillard et al., 2001). […]

The target of test [3] is T2, Dpy-30 D/D (a.a. #49-99) (Homo sapiens, UniProt Q9C005).
T2 construct: His-Dpy-30 D/D (a.a. #49-99) was co-expressed with GST-hAsh2593-623; made in house; host or cells: E. coli BL21(DE3)
T2 sequence (Q9C005 49-99): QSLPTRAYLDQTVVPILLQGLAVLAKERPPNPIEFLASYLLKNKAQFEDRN
The test is described as follows: Ni-NTA pulldown of GST-hAsh2 peptides with His-Dpy-30 D/D. Format: binding. The conditions noted are these: His-Dpy-30 D/D a.a. #49-99 co-expressed. The source says:
To differentiate if the interaction is via the Dpy-30 domain or the N-terminal fragment, His-Dpy-30 D/D (a.a. #49-99) was co-expressed with GST-hAsh2593-623 (FIG. 11C). To define the N-terminal end of Dpy-30 D/D binding site in hAsh2, W599 in the first potential ΦΦXX motif was mutated into P to disrupt helicity, an approach to abolish D/D-binding (Carr et al., 1982; Burns-Hamuro et al., 2003). […] Thus, the site that directly binds Dpy-30 D/D resides within hAsh2600-617 that is after W599 and contains four ΦΦXX-like motifs, even though an acidic residue occupies a supposedly hydrophobic position in the last motif, VETE (SEQ ID NO:35). The affinity may be further enhanced by adjacent sequences (Burns-Hamuro et al., 2003; Banky et al., 2003).
(§2) All expression constructs were transformed or co-transformed into BL21(DE3) cells. The colonies were selected based on the antibiotic-resistant gene in each plasmid. The cultures were induced with 1 mM IPTG overnight at 18° C. The cell pellet from a 5-ml culture was resuspended in 750-μl lysis buffer supplemented with Complete Mini EDTA-free protease inhibitor cocktail tablets (Roche) and the suspension was sonicated on ice using Branson digital Sonifier until clarified (Emerson Industrial Automation). The sonicated mixtures were centrifuged at 4° C., 12,000 rpm for 25 min. The supernatant or combinations of supernatants as indicated were incubated with ˜100 μl Ni-NTA (Qiagen or Clontech) or Glutathione Sepharose 4B (Amersham Biosciences) for 1 hour at room temperature. The matrix was subsequently washed as instructed by manufacturers, unless indicated otherwise.
(§3) Bacterial extract, flow through and eluate in 1× Laemmli samples buffer were boiled for 5 min. In general, 10 μl samples were loaded in each lane in 4-20% precast acrylamide gels (Bio-Rad or DGEL Electrosystem, Canada) or 14% manually cast gels.

The target of test [4] is T1, Dpy-30. The test is described as follows: Ni-NTA pulldown of GST-hAsh2 peptides with His-Dpy-30. The format is binding. More on the design: Dpy-30 fragments, full length or a.a.#49-99, were amplified using purchased IMAGE cDNA clone #4081996 as a template; made in house; host or cells: E. coli BL21(DE3); key to co-purified with Dpy-30: “+” or “−” indicates if the peptides were or were not evidently co-purified with Dpy-30; “+” or “−” indicates if the peptides were or were not evidently co-purified with Dpy-30. The conditions noted are these: GST-fused hAsh2 peptides, Ni-NTA pulldown, Coomassie-stained SDS-PAGE.
Description: To test this, we performed pull down assays for His-Dpy-30 and GST-hAsh2593-623. The human Ash2 fragment contains a helix with two typical and three atypical ΦΦXX motifs. The hAsh2 DNA was fused downstream to GST DNA by PCR and the product was cloned into an expression vector. Three clones—#9 and #14 with the expected in-frame fusion and #6 with an out-of-frame fusion—were expressed in bacteria. Their extract was mixed with equal volume of bacterial extract with His-Dpy-30; and the mixture was subjected to Ni-NTA purification. […] Thus hAsh2593-623 interacts with Dpy-30 specifically.
Table 3 illustrates the protein sequences of hAsh2's C-terminal region (hAsh2593-623) and its variants, where “+” or “−” indicates if the peptides were or were not evidently co-purified with Dpy-30. The shorter fusion protein GST-hAsh2593-617 that terminated right after the last possible ΦΦXX-like motif, VETE (SEQ ID NO:35), in the helix was also co-purified with His-Dpy-30 (FIG. 11B, arrow and double arrowheads), no matter expressed separately or co-expressed. Both polypeptides were depleted in the flow through of Ni-NTA matrix (Post in FIG. 11B) and retained in the eluate.
as §2, §3

No end group written: not given here.

T1 sequence (Q9C005 whole entry, the tested form may be a part): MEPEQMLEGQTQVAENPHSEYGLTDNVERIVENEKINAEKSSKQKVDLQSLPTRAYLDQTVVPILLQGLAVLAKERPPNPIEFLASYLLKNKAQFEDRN

On to “GST-RSP3280-306: GST-tagged Chlamydomonas RSP3 fragment a.a. 280-306 (PWLKEQAIGYLARGVVARRVVDKLVED; also: GST tag)”, for which, in test [1], the “co-purification / pulldown with His-Dpy-30” value is listed as “not”.

Consider “GST-RSP3280-308: GST-tagged RSP3 fragment a.a. 280-308, the Dpy-30-binding amphipathic helix AHD (PWLKEQAIGYLARGVVARRVVDKLVEDAA; also: GST-tagged (fusion))”, for which the “co-purification / pulldown with His-Dpy-30” value in test [1] is “pulled down”. Also, the “co-purification / pulldown with His-RIIa from RSP7” value in test [2] is on record as “did not significantly pull down”.

Consider “GST-RSP3280-316: GST-tagged Chlamydomonas RSP3 fragment a.a. 280-316 (PWLKEQAIGYLARGVVARRVVDKLVEDAAAALAANRS; also: GST tag)”, for which the “co-purification / pulldown with His-Dpy-30” value in test [1] was “pulled down”.

With PMSDMGPGAVVEHTLADVLYHVETEVDGRRS [W500P], in test [3], the “co-purification with the Dpy-30 domain” value is “still co-purified”. The “co-purified with Dpy-30” value in test [4] is on record as “−”.

Take “PMSDMGWGAVVEHTLAD----------GRRS (PMSDMGWGAVVEHTLADGRRS; also: GST fusion) [Δ610-619, GST-hAsh2593-623 with a.a. #610-619 deleted]”: the “co-purification with the Dpy-30 domain” value in test [3] is given as “abolished the co-purification”. For the same substance, in test [4], the “co-purified with Dpy-30” value was “−”.

For “PMSDMGWGAVVEHTLADVLYH------GRRS (PMSDMGWGAVVEHTLADVLYHGRRS; also: GST fusion) [Δ614-619, GST-hAsh2593-623 with VETEVD deleted]”, the “co-purification with the Dpy-30 domain” value in test [3] is given as “abolished the co-purification”. Also, in test [4], the “co-purified with Dpy-30” value was “−”.
